Target: T1, MtuSSB (Mycobacterium tuberculosis, UniProt P9WGD5)
T1 sequence: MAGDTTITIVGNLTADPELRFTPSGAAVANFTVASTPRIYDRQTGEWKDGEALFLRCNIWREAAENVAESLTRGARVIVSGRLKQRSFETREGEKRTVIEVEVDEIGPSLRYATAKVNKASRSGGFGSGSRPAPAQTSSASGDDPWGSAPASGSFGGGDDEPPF
Assay: EMSA; 20 mM Tris-HCl pH 8.0, 50 mM NaCl, 5% glycerol, 50 μg/ml BSA, 15 μl, 30 min at 4°C; […]
Settings: protein: recombinant; chain copies: 4; label: 5' 32P; single strand

B1: 79 mer ssDNA (ssDNA)
DNA: GCACTAGTGCGGATAGCCCCGTGTTGTTGTCTGACCCCCGACCCCGACGGCAATGCGGGGCAATCCCCTGGAGGCCTGC
B1: binds.
